From US20240053349A1
Square brackets hold non-standard residues; d marks the D form. Ends that are not written are not given here.

Columns and labels:
human plasma proteins = assay: plasma protein binding, dialysis 4 h at 37 C, 2 µM, LC-MS/MS; control
[1] = target: mouse plasma proteins (CD-1 mouse); assay: as above
[2] = target: Human FOLR1 on OVCAR3 cells (human) (UniProt P15328); assay: flow cytometry on OVCAR3 cells after 1 h at 37 C, before acid wash
[3] = target: Human FOLR1 on OVCAR3 cells (human) (UniProt P15328); assay: flow cytometry on OVCAR3 cells after 1 h at 37 C, after acid wash (internalized fraction)
[4] = target: T1, Fol-hshta-Gly-Phe-Lys(AO) (compound #3303) (not fully specified)
T1 chain: HSHTAGFK

[5] = target: T2, Fol-hshta-Lys(4-MPBA)-Gly-Phe-Lys(AO) (compound #3304)
T2 chain: HSHTAKGFK

[6] = target: T3, Fol-hshta-Lys(4-MPBA)-Gly-Phe-Lys(PEG3-DOTA) (compound #3302) (not fully specified)
T3 chain: HSHTAKGFK

[7] = target: T4, Fol-hshta-PEG3-Gly-Phe-Lys(DOTA) (compound #6307)
T4 chain: HSHTAGFK

[8] = target: T5, Fol-hshta-PEG3-Lys(DOTA) (compound #1189) (not fully specified)
T5 chain: HSHTAK

[9] = target: T6, Folate-hshta-G-F-K(DOTA)-OH (Indi 7327, compound #7327) (not fully specified)
T6 chain: HSHTAGFK

[10] = target: T7, Folate-hshta-Lys(IPBA)-Gly-Phe-Lys(DOTA) (compound #1307) (not fully specified)
T7 chain: HSHTAKGFK

[11] = target: T8, Folate-hshta-Lys(IPBA)-M-V-Lys(DOTA) (compound #1306) (not fully specified)
T8 chain: HSHTAKMVK

[12] = target: T9, Folate-hshta-Lys(MPBA)-Gly-Phe-Lys(DOTA) (compound #6305) (not fully specified)
T9 chain: HSHTAKGFK

[13] = target: T10, Folate-hshta-PEG3-Lys(MPBA)-Lys(DOTA) (compound #2809) (not fully specified)
T10 chain: HSHTAKK

Human FOLR1 on OVCAR3 cells (human), sequence (P15328 25-234 limits assumed): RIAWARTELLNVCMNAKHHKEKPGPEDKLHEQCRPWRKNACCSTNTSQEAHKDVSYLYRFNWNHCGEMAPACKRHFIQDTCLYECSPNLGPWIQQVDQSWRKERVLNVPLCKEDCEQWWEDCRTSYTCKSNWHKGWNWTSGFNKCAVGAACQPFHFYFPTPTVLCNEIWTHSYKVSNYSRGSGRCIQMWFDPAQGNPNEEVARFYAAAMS

Octreotide Acetate (peptide)
Plasma % Bound (human plasma proteins): 59.4%
Plasma % Bound [1]: 62.4%

B1: DyLight650-labeled folate-hshta Nterm heterobiligand (peptide)
peptide: folate-[dH][dS][dH][dT][dA]
modifications: also: triazole macrocycle via Pra and Az4, places not given here, DyLight 650 label, site not given here
percentage of positively stained cells [2]: 73.4%
percentage of positively stained cells [3]: 54.2%

B2: human recombinant neprilysin (NEP) (protein)
chain: YDDGICKSSDCIKSAARLIQNMDATTEPCTDFFKYACGGWLKRNVIPETSSRYGNFDILRDELEVVLKDVLQEPKTEDIVAVQKAKALYRSCINESAIDSRGGEPLLKLLPDIYGWPVATENWEQKYGASWTAEKAIAQLNSKYGKKVLINLFVGTDDKNSVNHVIHIDQPRLGLPSRDYYECTGIYKEACTAYVDFMISVARLIRQEERLPIDENQLALEMNKVMELEKEIANATAKPEDRNDPMLLYNKMTLAQIQNNFSLEINGKPFSWLNFTNEIMSTVNISITNEEDVVVYAPEYLTKLKPILTKYSARDLQNLMSWRFIMDLVSSLSRTYKESRNAFRKALYGTTSETATWRRCANYVNGNMENAVGRLYVEAAFAGESKHVVEDLIAQIREVFIQTLDDLTWMDAETKKRAEEKALAIKERIGYPDDIVSNDNKLNNEYLELNYKEDEYFENIIQNLKFSQSKQLKKLREKVDKDEWISGAAVVNAFYSSGRNQIVFPAGILQPPFFSAQQSNSLNYGGIGMVIGHEITHGFDDNGRNFNKDGDLVDWWTQQSASNFKEQSQCMVYQYGNFSWDLAGGQHLNGINTLGENIADNGGLGQAYRAYQNYIKKNGEEKLLPGLDLNHKQLFFLNFAQVWCGTYRPEYAVNSIKTDVHSPGNFRIIGTLQNSAEFSEAFHCRKNSYMNPEKKCRVW
NEP cleavage (in vitro Assay Data) [4]: Cleavage of -G-F-K- linker was confirmed in NEP assay.
NEP cleavage (in vitro Assay Data) [5]: Cleavage of -G-F-K- linker was confirmed in NEP assay.
NEP cleavage (in vitro Assay Data) [6]: Cleavage of -G-F-K- linker was confirmed in NEP assay.
NEP cleavage (in vitro Assay Data) [7]: Cleavage of -G-F-K- linker was confirmed in NEP assay.
NEP cleavage (in vitro Assay Data) [8]: Confirmed to be resistant to NEP cleavage.
NEP cleavage (in vitro Assay Data) [9]: Cleavage of -G-F-K- linker was confirmed in NEP assay.
NEP-mediated cleavage, NEP titration (10.0 to 0 nM), 37 C 1 h, MALDI-MS [9]: At 10 nM NEP, no intact Indi 7327 remains indicating complete consumption of the peptide. At 1.0 and 0.1 nM NEP, partial cleavage was observed. Below 0.1 nM NEP, no cleavage was observed.
NEP cleavage (in vitro Assay Data) [10]: Cleavage of -G-F-K- linker was confirmed in NEP assay.
NEP-mediated cleavage, MALDI-TOF MS [10]: At 1 nM NEP, substantial (and in the case of GFK complete) cleavage of the test article was observed by MALDI-TOF MS.
NEP cleavage (in vitro Assay Data) [11]: Cleavage of -M-V-K- linker was confirmed in NEP assay.
NEP-mediated cleavage, MALDI-TOF MS [11]: At 1 nM NEP, substantial (and in the case of GFK complete) cleavage of the test article was observed by MALDI-TOF MS.
NEP cleavage (in vitro Assay Data) [12]: Cleavage of -G-F-K- linker was confirmed in NEP assay.
NEP-mediated cleavage, NEP titration, MALDI (10 uM PCC) [12]: At 10 nM NEP, complete consumption of the starting peptide was observed. At 1 nM and 0.1 nM NEP, partial cleavage was observed. Below 0.1 nM no cleavage was observed.
NEP cleavage (in vitro Assay Data) [13]: Confirmed to be resistant to NEP cleavage.
